The target of test [1] is T1, human PRLR on the cell surface (T47D human breast cancer cells; BAF3-huPRLR cells) (human, UniProt P16471 25-622).
T1 construct: whole, on cells; Used for both T47D (endogenous) and BAF3-huPRLR (stably overexpressing) cells; also called PRLR antigen on the surface of the T47D cell
T1 sequence (looked up): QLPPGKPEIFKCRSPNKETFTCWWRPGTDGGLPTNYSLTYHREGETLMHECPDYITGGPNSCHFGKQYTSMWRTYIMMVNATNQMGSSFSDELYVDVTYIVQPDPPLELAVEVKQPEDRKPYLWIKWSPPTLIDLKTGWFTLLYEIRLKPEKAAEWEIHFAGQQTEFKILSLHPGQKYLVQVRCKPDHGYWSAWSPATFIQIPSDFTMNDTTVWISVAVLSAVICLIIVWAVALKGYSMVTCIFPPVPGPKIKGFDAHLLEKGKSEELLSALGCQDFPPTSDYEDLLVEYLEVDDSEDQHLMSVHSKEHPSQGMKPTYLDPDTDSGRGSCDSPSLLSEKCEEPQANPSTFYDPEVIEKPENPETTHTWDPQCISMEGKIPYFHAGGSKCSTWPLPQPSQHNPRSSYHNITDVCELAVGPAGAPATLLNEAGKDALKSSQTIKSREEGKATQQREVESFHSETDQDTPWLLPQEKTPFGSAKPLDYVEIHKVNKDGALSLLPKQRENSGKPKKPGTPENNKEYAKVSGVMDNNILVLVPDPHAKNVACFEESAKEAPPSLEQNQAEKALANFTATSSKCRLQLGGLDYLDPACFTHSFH
In words: flow cytometry on T47D cells. The procedure: In this experiment, a human mammary ductal carcinoma cell T47D was used as a target cell, and SPGA02-260 was used as a primary antibody. SPGA02-260 was serially diluted from 20 μg/mL in six gradients according to a 6-fold gradient. An antibody diluted with a 100 μL gradient and 100 μL of a T47D cell were incubated for 30 min at room temperature (The cell was suspended in 100 μL of an RPMI-1640 serum-free medium (purchased from Gibco, item No.: 61870036). The maximum working concentration of a monoclonal antibody was 10 μg/mL). The cell was washed twice with PBS to remove unbound SPGA02-260. Then, the cell was incubated with 50 μL of anti-murine fluorescent secondary antibody containing 5 μg/mL Alexa Fluor 488 label (purchased from Thermo and Invitrogen, item No.: A11001) at 4° C. for 40 min under light protection. The cell was washed twice with PBS to remove an unbound secondary antibody. Finally, the cell was resuspended in 100 μL of PBS. The binding affinity of SPGA02-260 to the cells was determined by a flow cytometry (purchased from Beckman, model: CytoFLEX). Data obtained were fitted and analyzed by GraphPad Prism6 software.

Test [2] addresses T2, recombinant human PRLR-ECD protein (Acro, item No. PRR-H52Ha) (human, UniProt P16471 25-234).
T2 construct: Bought protein; also called PRLR-His
T2 sequence: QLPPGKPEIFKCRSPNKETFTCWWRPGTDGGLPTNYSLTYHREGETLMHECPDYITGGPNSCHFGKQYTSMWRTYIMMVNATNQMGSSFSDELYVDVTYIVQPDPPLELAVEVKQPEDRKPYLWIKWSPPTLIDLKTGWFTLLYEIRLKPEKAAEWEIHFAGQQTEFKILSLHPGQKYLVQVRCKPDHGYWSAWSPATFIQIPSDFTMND
Nature of the test: indirect ELISA, coated human PRLR-ECD.

Test [3] concerns the target T3, mouse PRLR protein (Beijing Sinobiological, item No. 50457-M08H) (mouse, UniProt Q08501 20-229).
T3 construct: Bought; also called murine-derived PRLR-ECD
T3 sequence (looked up): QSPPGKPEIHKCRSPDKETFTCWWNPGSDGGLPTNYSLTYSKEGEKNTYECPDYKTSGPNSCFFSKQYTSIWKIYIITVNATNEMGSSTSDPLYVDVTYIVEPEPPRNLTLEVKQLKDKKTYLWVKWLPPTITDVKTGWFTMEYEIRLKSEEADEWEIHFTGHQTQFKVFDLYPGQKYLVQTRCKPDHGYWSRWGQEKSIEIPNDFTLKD
In words: indirect ELISA, coated mouse PRLR protein. The method, then: A mouse PRLR protein (purchased from Beijing Sinobiological Company, item No. 50457-M08H), i.e., mouse PRLR, was coated in a 96-well ELISA plate according to 0.5 μg/well. The cross-reactivity of SPGA02-ch18, and SPGA02-ch260 to the mouse PRLR was determined. Other specific experimental methods were referred to Embodiment 8.

Test [4] deals with T4, PRLR-ECD Fibronectin type-III 2 polypeptide 7 (189-208) (human, N-terminal biotin (bio-)).
T4 peptide: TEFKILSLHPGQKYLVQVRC
Nature of the test: peptide ELISA.

The target of test [5] is T2, recombinant human PRLR-ECD protein …. In words: indirect ELISA, coated human PRLR-ECD 0.5 µg/mL. The procedure: An indirect enzyme-linked immunosorbent assay was used to determine the binding ability of an murine-derived antibody to human PRLR as follows: diluting a recombinant human PRLR-ECD protein to 0.5 μg/mL with a coating solution (a phosphate coating buffer, pH 7.4), adding a solution to an enzyme-labeled plate with 100 μL/well, and coating the plate at 4° C. overnight. The plate was washed once with PBST. 300 μL/well of blocking solution (1% BSA-PBST) was added. The plate was incubated at 37° C. for 2 h and then washed three times with PBST. The purified antibody was diluted to 1 μg/mL with 1% BSA-PBST. After a solution was diluted with 1:3 gradient, the enzyme-labeled plate was added with 100 μL/well, and incubated at 37° C. for 1 h. The plate was washed with PBST 3 times. A HRP-labeled goat anti-mouse IgG secondary antibody (purchased from Abcam, item No.: ab6789) was added and incubate at 37° C. for 30 min. After the plate was washed 3 times with PBST, residual droplets were patted to be dry as much as possible with a blotting paper. 100 μL of TMB (purchased from KPL, item No.: 52-00-03) was added to each well, placed at room temperature (20±5° C.) and protected from light for 5 min. […] An OD value at 450 nm of an enzyme-labeled instrument was read to analyze the binding ability of the antibody to be tested to a target antigen PRLR-His.

The target in test [6] is T1, human PRLR on the cell surface (T47D …). In words: cell-based or functional assay.

Several values for one entry are separate records, joined by “and”; a condition that tells them apart may be missing. Equal entries are not always repeated.

B1: chimeric antibody SPGA02-ch260 (antibody, human IgG1, kappa, V domains shown)
VH: QVQLKESGPGLVAPSQSLSITCTVSGFSLTRNGVSWVRQPPGKGLEWLGIIWGDGSTNYHSALISRLSISKDNSKSQVFLKLNSLQTDDTATYYCAKEGLYYYGRYFDVWGAGTTVTVSS
VL: DIVMTQSHKFMSTSVGDRVSITCKASQDVGSAVAWYQQKPGQSPKVLIYWASTRHTGVPDRFTGSGSGTDFTLTISNVQSEDLADYFCQQYSNYPLTFGGGTKLEIRR
notes: Expressed in Expi293F cells; also called SPGA01-ch260
As to B1, the EC50 in test [1] is 0.21 nM and 0.031 µg/mL; in test [2], 0.0129 µg/mL and 0.09 nM; in test [3], 0.297 µg/mL.

B2: murine-derived anti-human PRLR monoclonal antibody SPGA02-260 (antibody, V domains shown)
VH: B1 VH
VL: DIVMTQSHKFMSTSVGDRVSITCKASQDVGSAVAWYQQKPGQSPKVLIYWASTRHTGVPDRFTGSGSGTDFTLTISNVQSEDLADYFCQQYSNYPLTFGGGTKLEIR
notes: Mouse monoclonal antibody purified from hybridoma supernatant by protein A; also called SPHA02-260
Turning to B2, the binding result in test [4] is recorded as “binds”. Also, the EC50 in test [1] is 0.026 µg/mL and 0.17 nM; in test [5] it was 0.0209 µg/mL and 0.14 nM.

B3: humanized monoclonal antibody SPGA02-hu260 (antibody, human IgG1, kappa, V domains shown)
VH: QVQLQESGPGLVKPSETLSLTCTVSGFSLTRNGVSWIRQPPGKGLEWVGVIWGDGSTNYNSAFMSRVTISVDTSKNQVSLKLSSVTAADTAVYYCAKEGLYYYGRYFDVWGQGTTVTVSS
VL: DIQMTQSPSSLSASVGDRVTITCRASQDVGSALAWYQQKPGKVPKLLIYWASTRHTGVPSRFSGSGSGTDFTLTISSLQPEDVATYYCQQYSNYPLTFGGGTKLEIKR
notes: Expressed in Expi-293F cells
As to B3, the “IC50 of inhibition of growth of BAF3-huPRLR cells (CCK8, 72 h)” value in test [6] was 8.28 ng/ml and 0.06 nM. In addition, the EC50 in test [2] was 0.00898 µg/mL and 0.06 nM.

The values are drawn from patent publication US20250129173A1 (SHENYANG SUNSHINE PHARMACEUTICAL, published 2025).
